According to US6989369B2, “Kunitz domain peptides” (Dyax Corp., priority 2003, dated 2006):
Values belong to the molecule of their own block, whether it stands above or below them. Positions of bridges follow the written chain, without caps; N, C: chain ends. No end group written: not given here.

Tests used:
[1] = rabbit
From the text: After radiolabeling, the two labeled protein preparations were purified from unbound label by size exclusion chromatography (SEC). Fractions from the SEC column having the highest radioactivity were pooled. The purified, radiolabeled preparations were characterized for specific activity by scintillation counting and for purity by SEC using a Superose-12 column equipped with an in-line radiation detector.
New Zealand White rabbits (ca. 2.5 Kg) were used for clearance measurements, with one animal each used for of the two labeled protein preparations. The radiolabeled preparation was injected into the animal via an ear vein. One blood sample was collected per animal per time point with early time points at approximately 0, 7, 15, 30, and 90 minutes and later time points at 4, 8, 16, 24, 48, 72, 96, 144, 168, and 192 hours. Samples (about 0.5 ml) were collected into anticoagulant (EDTA) tubes. Cells were separated from the plasma/serum fraction by centrifugation. The plasma fraction was divided into two aliquots. One plasma aliquot was stored at −70° C. and the other aliquot was kept at 4° C. for immediate analyses. Sample analyses included radiation counting for clearance rate determinations and SEC chromatography for in vivo stability.

[2] = Clinical testing of DX-88 for hereditary angioedema (HAE); type: in vivo, human; details: treatment of hereditary angioedema, initial data
[3] = about 840 mg, 80 open-heart surgery patients; cited from earlier work
HNE = molecular target: T1, HNE (Homo sapiens, UniProt P08246); test: HNE-neutralizing activity expected for doubly fused protein; type: biochemical; details: expected value, protein not tested
T1 sequence (P08246 30-267): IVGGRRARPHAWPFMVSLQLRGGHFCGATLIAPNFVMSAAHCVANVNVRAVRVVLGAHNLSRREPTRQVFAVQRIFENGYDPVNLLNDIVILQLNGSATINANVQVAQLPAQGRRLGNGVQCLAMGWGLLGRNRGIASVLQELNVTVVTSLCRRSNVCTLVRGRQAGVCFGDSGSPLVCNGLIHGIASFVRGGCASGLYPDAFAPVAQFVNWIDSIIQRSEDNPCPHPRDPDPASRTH

[4] = after 8 days of treatment; cited from earlier work

Molecule: EACNLPIVRGPCIAFFPRWAFDAVKGKCVLFPYGGCQGNGNKFYSEKECREYCGVP (disulfide 3-53, 12-36, 28-49) [DX-890]
in vivo stability, SEC analysis of plasma [1]: relatively rapid association of label with higher molecular weight plasma components
% α ([1]; in vivo): 75%
% β ([1]; in vivo): 25%
Clearance Times T1/2α ([1]; in vivo): 24 s

Molecule: DX-88: Kunitz domain derived from the first Kunitz domain of human LACI, inhibits human plasma kallikrein; SEQ ID No.: 48 (EAMHSFCAFKADDGPCRAAHPRWFFNIFTRQCEEFIYGGCEGNQNRFESLEECKKMCTRD; DX-88 Kunitz domain peptide)
safety and efficacy in the clinic [2]: safe and effective

Molecule: bovine pancreatic trypsin inhibitor [BPTI]
decrease of mean amount transfused [3]: 74%
reduction of blood loss [3]: almost half

HNE-neutralizing activity relative to DX890 (HNE): ~16%
Molecule: Dx890-HA-Dx890: albumin fused at both termini to DX-890 via (GGS)4GG linkers; SEQ ID No.: 75

B1: Pulmozyme: a recombinant human deoxyribonuclease which reduces mucus viscoelasticity by hydrolyzing DNA in sputum (protein, UniProt P24855 23-282, looked up)
Deoxyribonuclease-1: LKIAAFNIQTFGETKMSNATLVSYIVQILSRYDIALVQEVRDSHLTAVGKLLDNLNQDAPDTYHYVVSEPLGRNSYKERYLFVYRPDQVSAVDSYYYDDGCEPCGNDTFNREPAIVRFFSRFTEVREFAIVPLHAAPGDAVAEIDALYDVYLDVQEKWGLEDVMLMGDFNAGCSYVRPSQWSSIRLWTSPTFQWLIPDSADTTATPTHCAYDRIVVAGMLLRGAVVPDSALPFNFQAAYGLSDQLAQAISDHYPVEVMLK
effect on pulmonary function [4]: increase FEV1 and FVC
